According to patent US20150104448A1 (TRUE NORTH THERAPEUTICS, published 2015):
Where a chain is given by its changes, count along the chain named.

Columns and labels:
[1] = molecular target: T1, C2; assay: ELISA, target proteins immobilized on micro-titer plates
T1 construct: member of group m5; also called complement C2
T1 chain: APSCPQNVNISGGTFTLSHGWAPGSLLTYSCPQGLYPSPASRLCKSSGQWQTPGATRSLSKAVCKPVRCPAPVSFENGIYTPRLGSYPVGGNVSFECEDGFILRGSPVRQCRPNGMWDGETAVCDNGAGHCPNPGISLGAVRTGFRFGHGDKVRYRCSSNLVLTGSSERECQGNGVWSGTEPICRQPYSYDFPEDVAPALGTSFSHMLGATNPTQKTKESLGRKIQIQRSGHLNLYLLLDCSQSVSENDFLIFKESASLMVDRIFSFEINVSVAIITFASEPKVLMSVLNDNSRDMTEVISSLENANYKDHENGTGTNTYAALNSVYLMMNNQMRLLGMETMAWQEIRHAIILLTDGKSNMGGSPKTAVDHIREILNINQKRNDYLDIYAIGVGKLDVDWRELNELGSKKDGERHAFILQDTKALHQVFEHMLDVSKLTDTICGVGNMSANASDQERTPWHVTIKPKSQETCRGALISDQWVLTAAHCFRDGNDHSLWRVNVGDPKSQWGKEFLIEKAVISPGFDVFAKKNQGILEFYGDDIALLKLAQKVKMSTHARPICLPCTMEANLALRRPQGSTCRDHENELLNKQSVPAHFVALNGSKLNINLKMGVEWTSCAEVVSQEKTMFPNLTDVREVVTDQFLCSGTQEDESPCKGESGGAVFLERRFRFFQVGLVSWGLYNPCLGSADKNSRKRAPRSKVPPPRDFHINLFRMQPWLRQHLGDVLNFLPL
Protocol: (§1) To determine whether IPN003 could bind other components of the complement cascade, ELISA assays were performed with target proteins immobilized on micro-titer plates.

[2] = molecular target: T2, C1r; assay: as above
T2 construct: member of group m5; also called complement C1r
T2 chain: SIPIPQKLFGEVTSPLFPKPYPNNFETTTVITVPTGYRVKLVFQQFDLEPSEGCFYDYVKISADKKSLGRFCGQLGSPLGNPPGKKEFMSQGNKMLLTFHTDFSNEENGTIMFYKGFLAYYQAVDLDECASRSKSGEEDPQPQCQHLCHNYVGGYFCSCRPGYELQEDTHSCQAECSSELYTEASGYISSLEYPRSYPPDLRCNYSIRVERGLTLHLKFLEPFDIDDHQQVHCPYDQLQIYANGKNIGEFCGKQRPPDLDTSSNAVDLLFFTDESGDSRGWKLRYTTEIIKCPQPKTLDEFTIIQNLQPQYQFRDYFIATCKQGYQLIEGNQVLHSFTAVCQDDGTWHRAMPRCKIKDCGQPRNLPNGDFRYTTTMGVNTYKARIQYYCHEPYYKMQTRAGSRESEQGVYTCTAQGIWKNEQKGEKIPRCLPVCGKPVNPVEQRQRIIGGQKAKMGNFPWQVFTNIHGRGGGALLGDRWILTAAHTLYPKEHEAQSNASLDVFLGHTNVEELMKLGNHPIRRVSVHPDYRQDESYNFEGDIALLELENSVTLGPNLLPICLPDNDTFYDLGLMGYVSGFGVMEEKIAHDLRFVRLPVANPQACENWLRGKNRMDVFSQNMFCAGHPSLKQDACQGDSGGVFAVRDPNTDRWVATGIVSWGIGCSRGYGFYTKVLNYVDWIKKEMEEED
Protocol: as §1

[3] = molecular target: T3, purified human activated C1s protein, two-chain form (Homo sapiens, UniProt P09871 16-688); assay: as above
T3 construct: Also used here for C1s acting in human serum assays; also called human C1s; active C1s
T3 sequence: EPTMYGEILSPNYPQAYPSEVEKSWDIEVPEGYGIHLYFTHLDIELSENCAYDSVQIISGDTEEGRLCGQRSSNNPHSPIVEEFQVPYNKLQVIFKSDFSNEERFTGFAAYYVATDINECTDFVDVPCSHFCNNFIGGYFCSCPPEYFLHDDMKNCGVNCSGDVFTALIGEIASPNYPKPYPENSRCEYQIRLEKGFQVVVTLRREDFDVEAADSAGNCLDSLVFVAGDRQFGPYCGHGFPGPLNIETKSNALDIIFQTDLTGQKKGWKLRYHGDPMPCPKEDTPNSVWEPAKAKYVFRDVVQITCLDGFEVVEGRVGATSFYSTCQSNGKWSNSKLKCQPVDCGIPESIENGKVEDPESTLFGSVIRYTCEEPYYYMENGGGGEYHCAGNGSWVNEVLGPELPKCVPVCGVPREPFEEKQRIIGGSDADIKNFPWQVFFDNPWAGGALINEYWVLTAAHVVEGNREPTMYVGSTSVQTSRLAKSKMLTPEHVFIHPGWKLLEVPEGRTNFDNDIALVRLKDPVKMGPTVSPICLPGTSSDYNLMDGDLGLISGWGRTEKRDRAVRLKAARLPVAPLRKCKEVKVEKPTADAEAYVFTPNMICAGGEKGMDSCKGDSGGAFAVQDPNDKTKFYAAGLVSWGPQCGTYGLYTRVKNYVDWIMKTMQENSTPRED
Protocol: as §1

[4] = molecular target: T3, purified human activated C1s protein, …; assay: kinetic binding measurement, method not stated; Table 4, Active-C1s
[5] = molecular target: T4, Inactive-C1s (Homo sapiens, UniProt P09871); assay: kinetic binding measurement, method not stated; Table 4, Inactive-C1s
T4 construct: proenzyme (pro-C1s); also called pro-C1s
T4 sequence (single chain, looked up): T3 sequence

[6] = molecular target: T3, purified human activated C1s protein, …; assay: kinetic binding measurement, method not stated; kinetic measurement, native human C1s
[7] = molecular target: T5, purified rat C1s (rat, UniProt Q6P6T1 16-688, limits assumed); assay: ELISA, purified rat C1s immobilized on micro-titer plates, increasing dilutions of antibody
T5 construct: also called rat complement C1s protein
T5 sequence (looked up): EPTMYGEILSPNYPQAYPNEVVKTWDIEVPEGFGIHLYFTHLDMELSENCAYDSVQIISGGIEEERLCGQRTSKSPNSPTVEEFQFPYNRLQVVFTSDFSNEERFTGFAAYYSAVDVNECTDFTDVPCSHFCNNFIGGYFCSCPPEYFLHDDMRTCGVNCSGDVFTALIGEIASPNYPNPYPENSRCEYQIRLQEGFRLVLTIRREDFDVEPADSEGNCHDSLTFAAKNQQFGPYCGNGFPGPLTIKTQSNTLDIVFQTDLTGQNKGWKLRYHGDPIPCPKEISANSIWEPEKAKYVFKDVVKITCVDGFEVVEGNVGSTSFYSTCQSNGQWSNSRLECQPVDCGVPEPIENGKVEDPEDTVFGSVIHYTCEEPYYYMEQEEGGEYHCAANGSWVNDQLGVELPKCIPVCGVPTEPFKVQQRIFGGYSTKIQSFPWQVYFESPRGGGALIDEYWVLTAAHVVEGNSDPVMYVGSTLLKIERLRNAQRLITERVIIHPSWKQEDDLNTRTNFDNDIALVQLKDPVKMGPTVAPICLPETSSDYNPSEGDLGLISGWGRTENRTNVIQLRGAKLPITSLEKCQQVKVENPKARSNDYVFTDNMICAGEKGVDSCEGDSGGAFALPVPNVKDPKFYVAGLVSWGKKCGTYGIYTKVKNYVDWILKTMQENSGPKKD
Protocol: ELISA assays were performed with purified rat C1s immobilized on micro-titer plates and increasing dilutions of IPN003 or M81.

[8] = molecular target: T3, purified human activated C1s protein, …; assay: kinetic binding measurement, method not stated; lower end of the printed KD range, native human C1s
[9] = molecular target: T3, purified human activated C1s protein, …; assay: competition ELISA, plate-coated human C1s; competitor biotin-labeled M81 at 0.5E-9 M; competition with biotin-labeled M81 (0.5E-9 M), plate-coated native human C1s
Protocol: To determine if IPN003 could compete binding of M81 to human C1s, competition assays were performed, in which biotin-labeled M81 (final concentration 0.5E-9 M) was incubated with increasing concentrations of unlabeled antibodies in wells coated with human C1s.

[10] = molecular target: T4, Inactive-C1s; assay: kinetic binding measurement, method not stated; Table 10, pro-C1s
[11] = molecular target: T3, purified human activated C1s protein, …; assay: kinetic binding measurement, method not stated; Table 9, activated C1s

B1: Anti-C1s monoclonal antibody IPN003 (antibody, V domains shown)
VH: EVMLVESGGALVKPGGSLKLSCAASGFTFSNYAMSWVRQIPEKRLEWVATISSGGSHTYYLDSVKGRFTISRDNARDTLYLQMSSLRSEDTALYYCARLFTGYAMDYWGQGTSVTVSS
VL: QIVLTQSPAIMSASLGERVTMTCTASSSVSSSYLHWYQQKPGSSPKLWIYSTSNLASGVPARFSGSGSGTFYSLTISSMEAEDDATYYCHQYYRLPPITFGAGTKLELK
notes: Mouse monoclonal antibody from an NZBW hybridoma; Biotin-labeled in some assays; also called IPN-M34; M34
With B1 the binding result [1] was “no binding (tested: about 2e-7 M)”, the binding result [2] was “no binding (tested: about 2e-7 M)” and the “EC50 (read off the curve)” value [3] was about 0.3 nM. It also gave a Kd [4] of 2.04 nM, a koff [4] of 0.000658 s⁻¹ and a kon [4] of 323000 M⁻¹ s⁻¹. The Kd [5] was 1.58 nM, the koff [5] was 0.000553 s⁻¹ and the kon [5] was 356000 M⁻¹ s⁻¹. For the same binder, the koff [6] was 0.000553 s⁻¹, the kon [6] was 356000 M⁻¹ s⁻¹ and the Kd [7] was 0.2 nM. The Kd [8] was 1.58 to 2.04 nM and the IC50 [9] was 0.33 nM.

B2: VH3/Vk2 (antibody, V domains shown)
VH: B1 VH with A10G, K19R, I40A, E42G, R44G, A75S, R76K, S88A
VL: QIVLTQSPATLSLSPGERATMSCTASSSVSSSYLHWYQQKPGKAPKLWIYSTSNLASGVPSRFSGSGSGTDYTLTISSLQPEDFATYYCHQYYRLPPITFGQGTKLEIK
notes: member of group m7; also called VH3/Vκ2; VH variant 3 + Vk variant 2
Binder B2 has a Kd [10] of 0.291 nM, a koff [10] of 0.000315 s⁻¹ and a kon [10] of 1.08e+06 M⁻¹ s⁻¹. The Kd [11] was 0.274 nM, the koff [11] was 0.000311 s⁻¹ and the kon [11] was 1.13e+06 M⁻¹ s⁻¹.

B3: VH4/Vk1 (antibody, V domains shown)
VH: EVQLVESGGGLVKPGGSLRLSCAASGFTFSNYAMSWVRQAPGKGLEWVATISSGGSHTYYLDSVKGRFTISRDNSKNTLYLQMNSLRAEDTALYYCARLFTGYAMDYWGQGTLVTVSS
VL: B2 VL with T10I, D71F, P81A
notes: member of group m7; also called VH4/Vκ1; VH variant 4 + Vk variant 1
With B3 the Kd [10] was 0.291 nM, the koff [10] was 0.000319 s⁻¹ and the kon [10] was 1.1e+06 M⁻¹ s⁻¹. The Kd [11] was 0.228 nM, the koff [11] was 0.000271 s⁻¹ and the kon [11] was 1.19e+06 M⁻¹ s⁻¹.

B4: VH4/Vk2 (antibody, V domains shown)
VH: B3 VH
VL: B2 VL
notes: member of group m7; also called VH4/Vκ2; VH variant 4 + Vk variant 2
For B4, the Kd [10] was 0.262 nM, the koff [10] was 0.000263 s⁻¹ and the kon [10] was 1.01e+06 M⁻¹ s⁻¹. For the same binder, the Kd [11] was 0.262 nM, the koff [11] was 0.000264 s⁻¹ and the kon [11] was 1e+06 M⁻¹ s⁻¹.

B5: VH4/Vk3 (antibody, V domains shown)
VH: B3 VH
VL: B2 VL with M21L
notes: member of group m7; also called VH4/Vκ3; VH variant 4 + Vk variant 3
For B5, the Kd [10] was 0.278 nM, the koff [10] was 0.000306 s⁻¹ and the kon [10] was 1.1e+06 M⁻¹ s⁻¹. The Kd [11] was 0.298 nM, the koff [11] was 0.00031 s⁻¹ and the kon [11] was 1.04e+06 M⁻¹ s⁻¹.

B6: VH3/Vk3 (antibody, V domains shown)
VH: B3 VH with Q3M, N77D, N84S, L113S
VL: B2 VL with M21L
notes: member of group m7; also called VH3/Vκ3; VH variant 3 + Vk variant 3
With B6 the Kd [10] was 0.331 nM, the koff [10] was 0.000351 s⁻¹ and the kon [10] was 1.06e+06 M⁻¹ s⁻¹. For the same binder, the Kd [11] was 0.335 nM, the koff [11] was 0.00036 s⁻¹ and the kon [11] was 1.08e+06 M⁻¹ s⁻¹.
